Assay results published in CN110982824A.

How the values were obtained:
PD-L1 [1] = molecular target: PD-L1 (UniProt Q9NZQ7); assay: competition ELISA, PD-1 at 50 μg/ml, BP at 200 μg/ml
PD-L1 [2] = molecular target: PD-L1 (UniProt Q9NZQ7); assay: ELISA, PD-L1 coated, BP at 200 μg/ml, reference PD-1 binding PD-L1

Sequence of UniProt Q9NZQ7 (Q9NZQ7 19-238 limits assumed): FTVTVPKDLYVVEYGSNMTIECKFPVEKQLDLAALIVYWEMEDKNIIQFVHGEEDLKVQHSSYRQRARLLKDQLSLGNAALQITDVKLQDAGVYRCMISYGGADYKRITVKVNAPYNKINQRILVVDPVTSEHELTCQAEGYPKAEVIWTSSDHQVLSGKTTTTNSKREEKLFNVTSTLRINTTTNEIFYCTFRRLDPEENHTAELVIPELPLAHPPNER

- 抑制率 (inhibition of PD-1 binding to PD-L1) (PD-L1 [1]): 25%
- 结合强度 (relative to PD-1 binding PD-L1) (PD-L1 [2]): 115%
B1: 拮抗PD-1的抗体类似物BP蛋白 (VHH, not shown: small tags and cut ends)
VHH: DVQLQASGGGSVQAGGSLRLSCAASGYTIGTYAISWFRQAPGKEREGVAGIIPIFGKAHTYYADSVKGRFTISQDNAKNTVYLLMNSLEPEDTAIYYCAAKFHFVSGSPFGMDSWGQGTQVTVSS
